Measurements as given in PMC8313811 (Current Research in Structural Biology, 2021).

B1: M. marinum EspB2-286 (domain or fragment)
chain: SQPQTVTVDQQEILNRADEVEAPMATPPTDVPQAPSGLTAANNAAEQLAVSADNVRLYLQAGERERQRLATSLRNAAAAYGEVEDESATALDNDGNGEVDAQSAGGAGAGQTESLEETPKVAAAGESDFTDLKTAATKLESGDQGTSMVNFADGWNNFNLSLQRDIKRFRIFENWEGDAATACEASMDQQKEWILHMAKLSASLAKQANFMAQLQLWARRGHPTLADIVELERLAKDPDYQEQAIKLYAEYQETSEKVLSEYNTKADLEPVNPPKPPAAIKIDPP
B2: M. tuberculosis EspB (residues 2-358), mature form (domain or fragment)
chain: TQSQTVTVDQQEILNRANEVEAPMADPPTDVPITPCELTAAKNAAQQLVLSADNMREYLAAGAKERQRLATSLRNAAKAYGEVDEEAATALDNDGEGTVQAESAGAVGGDSSAELTDTPRVATAGEPNFMDLKEAARKLETGDQGASLAHFADGWNTFNLTLQGDVKRFRGFDNWEGDAATACEASLDQQRQWILHMAKLSAAMAKQAQYVAQLHVWARREHPTYEDIVGLERLYAENPSARDQILPVYAEYQQRSEKVLTEYNNKAALEPVNPPKPPPAIKIDPPPPPQEQGLIPGFLMPPSDGSGVTPGTGMPAAPMVPPTGSPGGGLPADTAAQLTSAGREAAALSGDVAVKAA
B3: M. tuberculosis EspB2-287 (domain or fragment)
chain: TQSQTVTVDQQEILNRANEVEAPMADPPTDVPITPCELTAAKNAAQQLVLSADNMREYLAAGAKERQRLATSLRNAAKAYGEVDEEAATALDNDGEGTVQAESAGAVGGDSSAELTDTPRVATAGEPNFMDLKEAARKLETGDQGASLAHFADGWNTFNLTLQGDVKRFRGFDNWEGDAATACEASLDQQRQWILHMAKLSAAMAKQAQYVAQLHVWARREHPTYEDIVGLERLYAENPSARDQILPVYAEYQQRSEKVLTEYNNKAALEPVNPPKPPPAIKIDPP

Assays:
cryo-EM structure = target: the molecule itself; assay: cryo-EM structure
SEC = target: the molecule itself; assay: SEC

Protein | stoichiometry N (cryo-EM structure) | binding result (SEC)
B1 | 7 | 
B2 |  | binds
B3 | 7 | 
